From patent US20200407442A1 (WUXI BIOLOGICS IRELAND, published 2020) come the findings set out here.

The assay concerns the target T1, full-length human LAG-3 on cells (human, UniProt P18627 23-525).
T1 construct: Expressed on Flp-In-293, CHO or 293F transfectants; also called hPro1.FL; cell surface human LAG-3
T1 sequence: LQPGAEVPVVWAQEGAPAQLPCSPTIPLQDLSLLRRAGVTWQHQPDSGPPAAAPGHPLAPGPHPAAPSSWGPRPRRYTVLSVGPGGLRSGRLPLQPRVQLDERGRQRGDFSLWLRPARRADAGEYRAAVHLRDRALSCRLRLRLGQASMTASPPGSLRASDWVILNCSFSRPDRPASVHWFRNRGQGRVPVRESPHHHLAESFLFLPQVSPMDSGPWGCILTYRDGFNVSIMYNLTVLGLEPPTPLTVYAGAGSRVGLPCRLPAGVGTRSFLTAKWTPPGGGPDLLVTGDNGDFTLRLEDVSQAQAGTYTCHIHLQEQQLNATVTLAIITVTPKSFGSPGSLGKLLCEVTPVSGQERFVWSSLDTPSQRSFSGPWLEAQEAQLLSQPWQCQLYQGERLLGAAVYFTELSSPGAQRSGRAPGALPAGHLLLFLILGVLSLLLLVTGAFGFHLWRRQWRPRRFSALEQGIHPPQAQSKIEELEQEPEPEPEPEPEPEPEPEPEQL
Briefly: FACS competition on Flp-In-293 cells expressing human LAG-3: biotinylated BMK7 at 1 ug/mL, serially diluted antibody, Streptavidin-PE. As to the method: The binding epitope of LAG-3 antibodies was binned against benchmark antibodies BMK1, BMK7 and BMK5 by FACS assay. Flp-In-293 cells expressing human LAG-3 at the cell surface were incubated with biotinylated benchmark antibodies at concentration of 1 μg/mL for 1 hour, followed by the adding of serially diluted LAG-3 antibodies. Streptavidin-PE antibody (Jackson Immunoresearch Lab) was used to detect the binding of benchmark antibodies to cells. The MFI was evaluated by flow cytometry and analyzed by FlowJo.

B1: 1.53.3-uAb-IgG4k (antibody, V domains shown)
VH: QVQLQQWGAGLLKPSETLSLTCGVYGGSFSGYYWSWIRQPPGMGLEWIGEINHRGNTNYNPSLKSRVTISEDTSKNQFSLRLSSVTAADTAVYFCTRGEDYSDYDYYGDFWGQGTLVTVSS
VL: EIVLTQSPATLSLSQGERATLSCRASQSISSYLAWYQQKPGQAPRLLIYAASNRATGIPARFSGSGSGTDFTLTISSLEPEDFAIYYCQQRSNWPLTFGGGTKVEIK
notes: Fully human antibody from OMT rats; IgG4 kappa by its name
For B1, the “IC50 (read off the curve)” value is about 3 nM.
